This data set concerns the molecule itself. Description: SEC; analytical size exclusion chromatography of recombinant CDH26A, 'in cell lysates'; details in the Supplementary Information. (In gel filtration, larger molecules generally elute earlier.)

B1: full-length recombinant CDH26A (cadherin-26, transcript variant A) (natural protein, human, UniProt Q8IXH8-4 28-832, looked up)
chain: DSVQQETDDLTKQTKEKIYQPLRRSKRRWVITTLELEEEDPGPFPKLIGELFNNMSYNMSLMYLISGPGVDEYPEIGLFSLEDHENGRIYVHRPVDREMTPSFTVYFDVVERSTGKIVDTSLIFNIRISDVNDHAPQFPEKEFNITVQENQSAGQPIFQMLAVDLDEENTPNSQVLYFLISQTPLLKESGFRVDRLSGEIRLSGCLDYETAPQFTLLIRARDCGEPSLSSTTTVHVDVQEGNNHRPAFTQENYKVQIPEGRASQGVLRLLVQDRDSPFTSAWRAKFNILHGNEEGHFDISTDPETNEGILNVIKPLDYETRPAQSLIIVVENEERLVFCERGKLQPPRKAAASATVSVQVTDANDPPAFHPQSFIVNKEEGARPGTLLGTFNAMDPDSQIRYELVHDPANWVSVDKNSGVVITVEPIDRESPHVNNSFYVIIIHAVDDGFPPQTATGTLMLFLSDINDNVPTLRPRSRYMEVCESAVHEPLHIEAEDPDLEPFSDPFTFELDNTWGNAEDTWKLGRNWGQSVELLTLRSLPRGNYLVPLFIGDKQGLSQKQTVHVRICPCASGLTCVELADAEVGLHVGALFPVCAAFVALAVALLFLLRCYFVLEPKRHGCSVSNDEGHQTLVMYNAESKGTSAQTWSDVEGQRPALLICTAAAGPTQGVKDLEEVPPSAASQSAQARCALGSWGYGKPFEPRSVKNIHSTPAYPDATMHRQLLAPVEGRMAETLNQKLHVANVLEDDPGYLPHVYSEEGECGGAPSLSSLASLEQELQPDLLDSLGSKATPFEEIYSESGVPS
notes: cadherin-26 (CDH26), human, product of transcript variant A (NM_177980; 18 exons; predicted protein molecular weight 92.4 kDa); full-length recombinant protein; also called rCDH26A; source: purified by the University of North Carolina Protein Expression and Purification Core Facility; for the analytical SEC 'in cell lysates'
As for B1, the binding result was “binds”.

Source of the values: paper PMC5809386, “Cadherin-26 (CDH26) regulates airway epithelial cell cytoskeletal structure and polarity” (Cell Discovery, 2018).
